The target of assay [1] is T1, monomeric human TNFR2 extracellular domain (human, UniProt P20333 23-257).
T1 construct: extracellular domain; Analyte in the Octet experiments; also called human TNFR2 ECD
T1 sequence (looked up): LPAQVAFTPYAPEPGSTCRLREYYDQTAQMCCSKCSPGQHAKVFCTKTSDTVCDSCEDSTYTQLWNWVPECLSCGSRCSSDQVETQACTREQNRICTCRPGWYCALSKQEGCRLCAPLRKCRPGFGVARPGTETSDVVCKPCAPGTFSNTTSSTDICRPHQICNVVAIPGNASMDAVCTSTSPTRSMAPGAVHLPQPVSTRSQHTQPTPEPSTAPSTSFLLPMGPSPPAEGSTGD
Kind of assay: BLI (Octet Red 96), CHO supernatant antibody on anti-human Fc biosensor, 100 nM monomeric human TNFR2 ECD, 1:1 model. The method, then: Analysis of binding to human TNFR2 ECD was performed using Octet Red 96 instrument (ForteBio). The Octet systems use propriety BLI to analyze biomolecular interaction. CHO supernatants of hSBT-002a, hSBT-002b, hSBT-002c, hSBT-002d, hSBT-002e, and chSBT-002n were diluted to 20 ug/ml based on titers with expression media and immobilized using anti-human Fc biosensors. These were incubated with 100 nM monomeric human TNFR2 in PBS. The experiments comprised of 5 steps: (1) baseline acquisition (60 s); (2) antibodies loading onto anti-human Fc biosensor (120 s); (3) second baseline acquisition (60 s); (4) association of interacting monomeric human TNFR2 ECD protein for kₒₙ measurement (120 s); (5) Dissociation of interacting monomeric human TNFR2 ECD for koff measurement (300 s). Data were analyzed using Octet Data Analysis Software 9.0 (ForteBio) and fitted to the 1:1 binding model. Equilibrium dissociation constants (Kd) were calculated by the ratio of […].
(In general: Biolayer interferometry detects binding as a change in optical thickness at a sensor tip.)

Assay [2] concerns the target T1, monomeric human TNFR2 extracellular …. Kind of assay: BLI (Octet Red 96), Human TNFR2 Kd (1-1).
The target is the same in assay [3]. As to the kind of experiment: BLI (Octet Red 96), antibody captured on Fc biosensor, monomeric TNFR2 ECD in solution, 1:1 model. The method, then:
(§1) Analysis of binding to the human and cynomolgus TNFR2 ECD was performed using an Octet Red 96 Instrument™ (ForteBio). […] The experiments were performed using five steps: (1) baseline acquisition (60 s); (2) antibody loading on to anti-human or anti-mouse Fc biosensors (120 s); (3) second baseline acquisition (60 s); (4) association of interacting monomeric human or cynomolgus TNFR2 ECD protein for kₒₙ measurement (120 s); and (5) dissociation of interacting monomeric human or cynomolgus TNFR2 ECD for koff measurement (240-3600 s).
(§2) The interacting monomeric human or cynomolgus ECD was used at 5-6 concentrations of a 3-fold concentration series. The data were analyzed using Octet Data Analysis Software 9.0™ (ForteBio) and fit to the 1:1 binding model. The equilibrium dissociation constants (Kd) were calculated by the ratio of […].

Assay [4] addresses T2, monomeric cynomolgus TNFR2 extracellular domain (cynomolgus monkey, UniProt A0A2K5VET2 132-366).
T2 construct: extracellular domain; Analyte in the Octet experiments; also called cynomolgus TNFR2 ECD; Cyno TNFR2
T2 sequence: T1 sequence (looked up) with S16G, S36P, P117Q, N164H, E210A, S216G, M223V
The assay is described as above. The method, then:
as §1, §2

Assay [5] has as its target T3, soluble human TNFR2 (human, UniProt P20333 23-257).
T3 construct: also called soluble TNFR2
T3 sequence (looked up): T1 sequence (looked up)
Kind of assay: competition ELISA, plate-bound soluble human TNFR2, biotinylated TNFα as competitor. The method, then: (§3) Soluble human TNFR2 (Sino Biological, 10417-H08H) or cynomolgus TNFR2 (Sino Biological, 90102-C08H) was coated on Nunc-Immuno™ plates at 0.1 μg/ml, 0.5 ug/ml, 1 μg/ml, and 5 μg/ml. […] Plates were developed using TMB and stopped with 3 M HCl.
IC₅₀ values are reported in nM.
(An ELISA detects its analyte on a solid surface through an enzyme-linked reagent.)

For assay [6], the target named is T4, cynomolgus TNFR2 on cells (cynomolgus).
T4 construct: whole, on cells; also called cynomolgus TNFR2 on CD4+ and CD8+ T cells
As to the kind of experiment: flow cytometry on cynomolgus PBMC, antibody at 10 ug/mL, anti-human Fc-PE secondary. The method, then: Cynomolgus peripheral blood mononuclear cells (PBMCs) from two independent donors were isolated by diluting whole blood (SNBL USA) 1:1 in PBS (Lonza), layering over Ficoll-Paque Plus (GE Healthcare), and centrifuging for 35 minutes at 400×g. The PBMC fraction was removed, washed 3 times in 2% FBS PBS and counted. 0.3×10⁶ PBMC were resuspended in Fixable Viability Stain 575V (BD) diluted 1:1000 in PBS and incubated for 10 minutes. PBMC were then washed twice in PBS to remove residual viability stain, resuspended in Horizon Brilliant Stain Buffer (BD) with 10 uL per test of human Fc receptor binding inhibitor (eBioscience), and incubated on ice for 20 minutes to block Fc receptors. […] PBMC were incubated 20 minutes on ice and then washed three times with 2% FBS PBS. To visualize TNFR2 chimeric antibody binding, PBMC were resuspended in goat anti-human Fc-PE F(ab′)₂ secondary reagent (Jackson ImmunoResearch) diluted 1:200 in 2% FBS PBS and incubated on ice for 20 minutes. Cells were then washed three times in 2% FBS PBS and resuspended in 200 uL 2% FBS PBS for flow cytometry analysis using a BD FACS Celesta instrument and FACS Diva software. T cells were analyzed for chimeric TNFR2 binding by gating on viable cells defined as lymphocytes using forward and side scatter and as T cells by anti-CD3 staining. CD4⁺ and CD8⁺ subsets were identified using commercial specific antibody conjugates.
(In general: Flow cytometry measures light scatter and fluorescence of single cells or particles in a stream.)

For another assay, the target named is T5, human TNFR2 on cells (human, UniProt P20333 23-461).
T5 construct: whole, on cells; also called TNFR2 on Jurkat clone H6; human TNFR2 on CD4+ and CD8+ T cells
T5 sequence (looked up): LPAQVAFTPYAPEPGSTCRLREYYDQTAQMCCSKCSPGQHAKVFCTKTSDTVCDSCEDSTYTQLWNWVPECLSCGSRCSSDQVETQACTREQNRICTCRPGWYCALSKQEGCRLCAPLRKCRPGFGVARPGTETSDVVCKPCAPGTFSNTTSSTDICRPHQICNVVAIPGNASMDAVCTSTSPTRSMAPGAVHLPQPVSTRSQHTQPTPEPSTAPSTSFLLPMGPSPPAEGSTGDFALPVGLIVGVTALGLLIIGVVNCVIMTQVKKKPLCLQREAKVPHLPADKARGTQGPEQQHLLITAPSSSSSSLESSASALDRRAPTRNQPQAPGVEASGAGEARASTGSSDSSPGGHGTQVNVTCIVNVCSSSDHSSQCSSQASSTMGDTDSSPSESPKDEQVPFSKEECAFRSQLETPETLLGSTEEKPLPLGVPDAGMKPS
Kind of assay: flow cytometry on human PBMC, antibody at 10 ug/mL, anti-human Fc-PE secondary. The method, then:
The following day 0.3×10⁶ PBMC were counted and washed with PBS (Lonza). PBMCs were resuspended in Fixable Viability Stain 575V (BD) diluted 1:1,000 in PBS and incubated for 10 minutes. PBMCs were then washed twice in PBS to remove residual viability stain. PBMCs were then resuspended in Horizon Brilliant Stain Buffer (BD) with 10 uL per test of human Fc receptor binding inhibitor (eBioscience) and incubated on ice for 20 minutes to block Fc receptors. […] PBMCs were incubated 20 minutes on ice and then washed three times with 2% FBS PBS. To visualize TNFR chimeric antibody binding, PBMCs were resuspended in goat anti-human Fc-PE F(ab′)₂ secondary reagent (Jackson ImmunoResearch) diluted 1:200 in 2% FBS PBS and incubated on ice for 20 minutes. Cells were then washed three times in 2% FBS PBS and resuspended in 200 uL 2% FBS PBS for flow cytometry analysis using a BD FACS Celesta instrument and FACS Diva software. T cells were analyzed for chimeric TNFR2 binding by gating on viable cells defined as lymphocytes using forward and side scatter and as T cells by anti-CD3 staining. CD4⁺ and CD8⁺ subsets were identified by commercially available specific antibody conjugates.

The target in assay [7] is T3, soluble human TNFR2. As to the kind of experiment: competition ELISA: plate-bound soluble human TNFR2, competitor biotinylated TNFα, streptavidin-HRP, A450. The method, then:
as §3

In assay [8] the target is T3, soluble human TNFR2. Kind of assay: competition ELISA: plate-bound soluble human TNFR2, competitor biotinylated TNFα; IC50 relative to unlabelled TNFα = 1.00. The method, then:
as §3

Numbering of substitutions follows the chain as printed.

One may read the Kd as the equilibrium constant for the complex coming apart. As usually defined, the koff is the rate constant with which the complex falls apart. Low values mean a long-lived complex, high ones a short-lived complex. The term IC50 denotes the concentration at which inhibition is half-maximal. High values mean weaker potency in that assay, low ones greater potency in that assay.

B1: chimeric SBT-002 Fc null (antibody, V domains shown)
VH: QVTLKESGPGILQPSQTLSLTCSFSGFSLSTSGMGVGWIRQPSGKGLEWLAHIWWDDDKFYNPSLKSQLTISKDTSRNQVFLKLTSVVTADTATYYCARLTGTRYFDYWGQGTTLTVSS
VL: DVQMTQSPSSLSASLGGKVTITCKASQDINKFIAWYQHKPGKGPRLLIHYTSTLQPGIPSKFSGSGSGRDYSFSISNLEPEDIATYYCLQYGNLWTFGGGTKLEIT
notes: also called chSBT-002n
In assay [1], B1 returned a Kd of 1.92 nM and a koff of 0.000361 s⁻¹. In addition, in assay [2], the dissociation constant Kd is 2.5 nM.

B2: hSBT-002b (antibody, V domains shown)
VH: QVTLKESGPALVKPTQTLTLTCTFSGFSLSTSGMGVGWIRQPPGKALEWLAHIWWDDDKFYNPSLKSQLTISKDTSKNQVVLTMTNMDPVDTATYYCARITGTRYFDYWGQGTTVTVSS
VL: DVQMTQSPSSLSASVGDRVTITCKASQDINKFIAWYQQKPGKAPKLLIHYTSTLQPGIPSRFSGSGSGTDFTFTISSLQPEDIATYYCLQYGNLWTFGGGTKVEIK
notes: Humanized SBT-002; VH fused to human IgG1 Fc null, VL to human Ck; Tested as CHO supernatant
As to B2, in [1], the Kd is 2.44 nM and the koff was 0.000424 s⁻¹.

B3: hSBT-002e (antibody, V domains shown)
VH: B2 VH with Q68R, I100L
VL: B2 VL with T69R, F71Y
notes: as for B2
In assay [1], B3 yielded a Kd of 1.54 nM and a koff of 0.000268 s⁻¹.

B4: hSBT-002c (antibody, V domains shown)
VH: B2 VH with Q68R, I100L
VL: B2 VL
notes: as for B2
B4: in assay [1], the Kd came out at 2.27 nM and the koff is 0.000446 s⁻¹.

B5: hSBT-002d (antibody, V domains shown)
VH: B2 VH
VL: B2 VL with T69R, F71Y
notes: as for B2
As to B5, in assay [1], the Kd is 1.73 nM and the koff came to 0.000301 s⁻¹.

B6: hSBT-002a (antibody, V domains shown)
VH: B2 VH with Q68R
VL: B2 VL with V2I, H49Y, I58V
notes: as for B2
In assay [1], B6 came in with a Kd of 4.89 nM and a koff of 0.000722 s⁻¹.

B7: chimeric SBT-001 (antibody, V domains shown)
VH: EVQLQQSGAELVKPGASVKISCKASGYTFTDYNMDWVKQSHGKSLEWIGDINPNYESTSYNQKFKGKATLTVDKSSSTAYMEVRSLTSEDTAVFYCARDKGWYFDVWGAGTTVTVSS
VL: ENVLTQSPAIMSASLGEKVTMSCRASSSVKNMYWYQQKSDASPKLWIYYTSNLAPGVPARFSGSGSGNSYSLTISSMEGEDAATYYCQQFTSSPYTFGGGTKLELK
notes: also called chSBT-001
For the molecule B7, the Kd in [3] came out at 1.8 nM; in assay [4], 58.3 nM.

B8: chimeric SBT-003 (antibody, V domains shown)
VH: QIQLVQSGPELKKPGETVKISCKASGYTFTDYSMHWVKQAPGKGLKWMGWINTETGEPTYADDFKGRFAFSSETSTSTAYLQINNLKNDDTTTYFCATYYGSSYVPDYWGQGTSLTVSS
VL: DIVMTQSHKFMSTSVGDRVSITCKASQNVGTAVAWYQHKPGQSPKLLIYWTSSRHTGVPDRFTGSGSGTEFTLTISNVQSEDLADYFCHQYSDYPYTFGGGTKLEIK
notes: also called chSBT-003
As to B8, the “Average Relative IC50” value in the assay with soluble human TNFR2 [5] amounted to 5.33 nM. In assay [6], the “% CD4^+ ab^+ Donor 1” value worked out at 0.7%, the “% CD4^+ ab^+ Donor 2” value amounted to 1.2%, the “% CD8^+ ab^+ Donor 1” value was found to be 0.6% and the “% CD8^+ ab^+ Donor 2” value was 2.1%. Besides, in the assay with human TNFR2 on cells, the “% CD4^+ ab^+ Donor 1” value amounted to 44.4%, the “% CD4^+ ab^+ Donor 2” value came out at 35%, the “% CD8^+ ab^+ Donor 1” value amounted to 23.8% and the “% CD8^+ ab^+ Donor 2” value was found to be 17.7%. This molecule returned an IC50 with soluble human TNFR2 [7] of 14.4 nM. Also, the “Relative IC50” value with soluble human TNFR2 [8] was determined as 5.79 nM. Further, in assay [3], the affinity, expressed as Kd, was 0.25 nM. In [4], binding was put at a Kd of 470 nM.

B9: chimeric SBT-003 Fc null (antibody, V domains shown)
VH: B8 VH
VL: B8 VL
notes: also called chSBT-003n
B9: the Kd in assay [2] was 1 nM. This counts as single-digit nanomolar.

Source of the values: patent US20190202925A1 (OPI VI IP HOLDCO, published 2019).
